Assay [1] concerns the target T1, Human CD32A 131H extracellular domain, 6xHis_Flag tagged (human, UniProt P12318 34-217).
T1 construct: Used unlabelled as the analyte in Biacore; also called Hu CD32A_131His
T1 sequence: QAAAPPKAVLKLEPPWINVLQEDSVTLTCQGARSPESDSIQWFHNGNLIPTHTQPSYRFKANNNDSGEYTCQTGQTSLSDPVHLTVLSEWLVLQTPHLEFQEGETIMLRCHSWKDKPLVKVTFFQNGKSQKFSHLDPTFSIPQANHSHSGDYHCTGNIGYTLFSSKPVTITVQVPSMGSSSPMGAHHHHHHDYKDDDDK
Briefly: HTRF epitope competition; competitor IV.3 IgG on biotinylated human CD32A 131H. (In general: Time-resolved FRET reads energy transfer from a long-lived donor to a nearby acceptor.)

The target in assay [2] is T2, human FcγRIIA 131R on blood cells of 131R/R donors (human, UniProt P12318 34-317).
T2 sequence: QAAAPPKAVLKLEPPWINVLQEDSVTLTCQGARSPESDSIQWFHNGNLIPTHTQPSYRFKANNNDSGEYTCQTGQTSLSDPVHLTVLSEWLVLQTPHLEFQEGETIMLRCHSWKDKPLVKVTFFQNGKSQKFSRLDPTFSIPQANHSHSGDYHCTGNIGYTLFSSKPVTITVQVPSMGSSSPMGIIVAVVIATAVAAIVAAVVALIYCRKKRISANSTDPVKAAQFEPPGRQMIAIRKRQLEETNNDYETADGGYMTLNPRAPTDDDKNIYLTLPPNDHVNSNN
The experiment in a line: cell-based or functional assay.

For assay [3], the target named is cynomolgus monkey FcγRIIA on blood cells (cynomolgus monkey). Briefly: cell-based or functional assay.
Assay [4] addresses T2, human FcγRIIA 131R on blood cells of …. The experiment in a line: cell-based or functional assay. This is another data set of the same source.
In assay [5] the target is T3, human FcγRIIA 131H on blood cells of 131H/H donors (human, UniProt P12318 34-317).
T3 sequence (looked up): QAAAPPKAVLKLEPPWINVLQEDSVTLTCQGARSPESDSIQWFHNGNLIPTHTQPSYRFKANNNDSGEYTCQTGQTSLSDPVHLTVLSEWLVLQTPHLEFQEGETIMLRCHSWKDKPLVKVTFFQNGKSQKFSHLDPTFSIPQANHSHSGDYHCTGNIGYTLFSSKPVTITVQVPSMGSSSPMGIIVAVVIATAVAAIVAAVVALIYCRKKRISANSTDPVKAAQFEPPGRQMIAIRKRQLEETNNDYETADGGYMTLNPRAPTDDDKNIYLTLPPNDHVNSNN
Briefly: cell-based or functional assay.

The target of assay [6] is T3, human FcγRIIA 131H on blood cells of …. Briefly: cell-based or functional assay. This is another data set of the same source.
The target of assay [7] is T1, Human CD32A 131H extracellular domain, …. Briefly: HTRF epitope competition: sample IgG titrated against binding of mouse IV.3 IgG to biotinylated human CD32A 131H. The method, then:
Subsequently, a potential […] site was removed in VL CDR1 (N28L) to reduce the risk of chemical modification during manufacture.
5 μl is added to the assay plate (384 black, shallow well, Costar, 3676), to give a final concentration of 2.0 nM. […] 5 μl of each IgG sample is transferred to the assay plate using a MiniTrak™ (Perkin Elmer). […] Assay plates were incubated for 3 hours at room temperature prior to reading time resolved fluorescence at 620 nm and 665 nm emission wavelengths using an EnVision plate reader (Perkin Elmer).

For assay [8], the target named is T4, Human CD32A 131R extracellular domain, 6xHis_Flag tagged (human, UniProt P12318 34-217).
T4 construct: also called Hu CD32A_131Arg; human CD32A_131 Arg
T4 chain: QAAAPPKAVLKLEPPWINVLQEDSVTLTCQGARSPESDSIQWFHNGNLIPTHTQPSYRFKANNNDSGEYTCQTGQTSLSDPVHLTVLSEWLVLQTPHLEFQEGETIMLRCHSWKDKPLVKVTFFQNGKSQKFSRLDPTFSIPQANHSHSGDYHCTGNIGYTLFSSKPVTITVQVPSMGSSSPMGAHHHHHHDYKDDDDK
Briefly: Biacore; IgG1-TM captured on a Protein G chip, CD32A as analyte, 1:1 Langmuir fit, average of two experiments. On the technique in general: Surface plasmon resonance follows binding to a sensor surface in real time, without labels.

Assay [9] addresses T1, Human CD32A 131H extracellular domain, …. The description is as above.
Assay [10] addresses T5, cynomolgus CD32A version 3, 6xHis tagged (cynomolgus monkey).
T5 construct: also called Cyno CD32A; cyno CD32A (version 3)
T5 chain: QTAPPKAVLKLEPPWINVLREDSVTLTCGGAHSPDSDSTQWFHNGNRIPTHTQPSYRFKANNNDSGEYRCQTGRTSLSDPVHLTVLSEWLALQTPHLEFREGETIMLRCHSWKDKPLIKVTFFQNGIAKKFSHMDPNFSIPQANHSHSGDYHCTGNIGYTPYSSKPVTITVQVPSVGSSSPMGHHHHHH
Described as above.

One may read the Kd as the free concentration of one partner at which half of the binding sites on the other are occupied at equilibrium, for simple one-to-one binding. By koff is commonly meant a measure of how fast the partners let go of each other. By kon is commonly meant the second-order rate constant of association.

B1: fully humanized IV.3 IgG1 (VH and VL fully humanized, before Y36F and N28L) (antibody)
chain 1: QVQLVQSGAEVKKPGASVKVSCKASGYTFTNYGMNWVRQAPGQRLEWMGWLNTYTGESIYPDDFKGRVTITRDTSASTAYMELSSLRSEDTAVYYCARGDYGYDDPLDYWGQGTLVTVSS
chain 2: DIVMTQSPLSLPVTPGEPASISCRSSKSLLHTNGNTYLHWYLQKPGQSPQLLIYRMSVLASGVPDRFSGSGSGTDFTLKISRVEAEDVGVYYCMQHLEYPLTFGQGTKLEIK
With B1, the “fold loss of potency in the IV.3 epitope competition assay (the next sentence compares with the mouse IgG)” value in [1] came out at 10 fold.

B2: chimeric IV.3 (human IgG1-TM) (antibody, V domains shown)
VH: QIQLVQSGPELKKPGETVKISCKASGYTFTNYGMNWVKQAPGKGLKWMGWLNTYTGESIYPDDFKGRFAFSSETSASTAYLQINNLKNEDMATYFCARGDYGYDDPLDYWGQGTSVTVSS
VL: DIVMTQAAPSVPVTPGESVSISCRSSKSLLHTNGNTYLHWFLQRPGQSPQLLIYRMSVLASGVPDRFSGSGSGTAFTLSISRVEAEDVGVFYCMQHLEYPLTFGAGTKLELK
notes: also called parent IV.3 chimeric Ab; chimeric IV.3 antibody
On to B2, for which the entries for the “IC50 of the loss of surface FcγRIIA (M.F.I of IV.3-Alexa 647) on monocytes, whole blood, 2 h at 37 °C” value in [2] and in [6] were 198 pM and 191 pM, respectively. Also, the “IC50 of the loss of surface FcγRIIA (M.F.I of IV.3-Alexa 647) on cynomolgus monocytes, whole blood, 2 h at 37 °C” value in [3] amounted to 7820 pM. In addition, the results for the “EC50 of FcγRIIA internalization from the monocyte surface (whole blood FACS assay)” value in assay [4] and in assay [5] were 200 pM and 190 pM, respectively. In [7], the “IC50 (read off the curve)” value is ~2000 pM. Besides, the Kd in assay [8] stood at 220 pM; in assay [9] it was 220 pM; in [10], 44100 pM. Also, the koff in assay [8] is 0.00129 s⁻¹; in assay [9], 0.000681 s⁻¹; in [10], 0.204 s⁻¹. Moreover, the kon in [8] came to 5.95e+06 M⁻¹ s⁻¹; in assay [9] it was 3.03e+06 M⁻¹ s⁻¹; in [10] it was 4.63e+06 M⁻¹ s⁻¹.

(Values after patent US20260125478A1 (VIELA BIO, published 2026).)
